Measurements from US20250129143A1.

Assays:
K11 (human) [1] = test: immunoprecipitation from HCT-116 cell extract; gel region of 62 kDa or more; quantitative mass spectrometry with stable isotope-labeled peptides [panel A]
K27 (human) [2] = test: as above
K29 (human) [3] = test: as above
K33 (human) [4] = test: as above
K48 (human) [5] = test: as above
K6 (human) [6] = test: as above
K63 (human) [7] = test: as above
M1 (human) [8] = test: as above
[9] = target: polyubiquitinated substrates (HCT-116 cell extract); test: as above
K11 (human) [10] = test: immunoprecipitation from HCT-116 cell extract; quantitative mass spectrometry; pie chart [panel B]
K27 (human) [11] = test: as above
K29 (human) [12] = test: as above
K33 (human) [13] = test: as above
K48 (human) [14] = test: as above
K6 (human) [15] = test: as above
K63 (human) [16] = test: as above
M1 (human) [17] = test: as above
[18] = target: polyubiquitinated substrates (HCT-116 cell extract); test: immunoprecipitation (Halo tag-fused wild-type monobody) from HCT-116 cell extract; gel region of 62 kDa or more; quantitative mass spectrometry with stable isotope-labeled peptides [panel A]

K11 chain-derived peptide in the immunoprecipitate (K11 (human) [1]) [fmol] | K27 chain-derived peptide in the immunoprecipitate (K27 (human) [2]) [fmol] | K29 chain-derived peptide in the immunoprecipitate (K29 (human) [3]) [fmol] | K33 chain-derived peptide in the immunoprecipitate (K33 (human) [4]) [fmol] | K48 chain-derived peptide in the immunoprecipitate (K48 (human) [5]) [fmol] | K6 chain-derived peptide in the immunoprecipitate (K6 (human) [6]) [fmol] | K63 chain-derived peptide in the immunoprecipitate (K63 (human) [7]) [fmol] | M1 chain-derived peptide in the immunoprecipitate (M1 (human) [8]) [fmol] | EST peptide (…) in the immunoprecipitate [9] [fmol] | total ubiquitin in the immunoprecipitate (EST + K63 peptides) [9] [fmol] | percentage of this chain among the 8 ubiquitin chain-derived peptides in the immunoprecipitate (control subtracted) (K11 (human) [10]) [%] | percentage of this chain among the 8 ubiquitin chain-derived peptides in the immunoprecipitate (control subtracted) (K27 (human) [11]) [%] | percentage of this chain among the 8 ubiquitin chain-derived peptides in the immunoprecipitate (control subtracted) (K29 (human) [12]) [%] | percentage of this chain among the 8 ubiquitin chain-derived peptides in the immunoprecipitate (control subtracted) (K33 (human) [13]) [%] | percentage of this chain among the 8 ubiquitin chain-derived peptides in the immunoprecipitate (control subtracted) (K48 (human) [14]) [%] | percentage of this chain among the 8 ubiquitin chain-derived peptides in the immunoprecipitate (control subtracted) (K6 (human) [15]) [%] | percentage of this chain among the 8 ubiquitin chain-derived peptides in the immunoprecipitate (control subtracted) (K63 (human) [16]) [%] | percentage of this chain among the 8 ubiquitin chain-derived peptides in the immunoprecipitate (control subtracted) (M1 (human) [17]) [%] | EST peptide (…) in the immunoprecipitate [18] [fmol] | total ubiquitin in the immunoprecipitate (EST + K63 peptides) [18] [fmol] | Substance
0.02 | 0.03 | 0 | 0 | 0.04 | 0 | 0 | 0 | 0.19 | 0.19 |  |  |  |  |  |  |  |  |  |  | Control IgG (antibody)
3.62 | 0.11 | 3.69 | 0.2 | 29.1 | 2.15 | 9.59 | 0.02 | 106 | 116 | 7 | 0 | 8 | 0 | 60 | 5 | 20 | 0 |  |  | anti-polyubiquitin monoclonal antibody FK2 (0918-2, Nippon Bio-Test)
 |  |  |  |  |  |  |  |  |  |  |  |  |  |  |  |  |  | 12.3 | 13 | wild-type Monobody (FN3) (designed binder)
1.65 | 0.08 | 20.1 | 0.11 | 21.8 | 1.32 | 2.47 | 0 | 72.1 | 74.5 | 3 | 0 | 43 | 0 | 46 | 3 | 5 | 0 |  |  | anti-ubiquitin antibody P4D1 (sc-8017, Santa Cruz)
